Experimental data: the supplement of paper PMC9170038

Tested on: MS2 coat protein
Experiment: apparent KD of MS2 coat protein; designed switch direction (-1 OFF switch, 1 ON switch): -1; higher = weaker reporter binding
Outline: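 For each design, the apparent KD is the median over clusters of curves fitted to normalised cluster fluorescence. Clusters held RNA switches with common flanks, transcribed on Illumina chips by stalled E. coli RNA polymerase. These were titrated with SNAP-549-labelled MS2 coat protein, doubling from 0.7 or 1.5 nM to 3 µM, without input, with 200 uM small-molecule ligand, or with an oligonucleotide input.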

[1] = input ligand: microRNA oligo, concentration not stated
[2] = Eterna round: R95, input ligand: FMN 200 uM
[3] = Eterna round: R95, input ligand: microRNA oligo, concentration not stated
[4] = Eterna round: R95, input ligand: none

Sequence | apparent KD of MS2 coat protein (input ligand: FMN 200 uM) | apparent KD of MS2 coat protein [1] | apparent KD of MS2 coat protein (input ligand: none) | apparent KD of MS2 coat protein [2] | apparent KD of MS2 coat protein [3] | apparent KD of MS2 coat protein [4]
GCGGACUUGAACGUGAGUUCAGAGACAUGAGGAUCACCCAUGUAGGAUAUCGAUUCGAAACGAAUCGAGAAGGGCAUGGUCCGC [JL denovo 14] (Eterna round: R96, puzzle: Exclusion NG 3) | 37.4 nM | 21.3 nM | 28.8 nM |  |  | 
GCCUCACUUGAGGAUCACCCAAGUCAGGAUAUUCACUGAGCUGCAUAACAACUCGGCCGAAGAAGGGAUUCGGG [Edlacebe] (Eterna round: R97, puzzle: Exclusion 1) | 41.3 nM |  | 84.9 nM |  |  | 
UUAAUUAAUGUGAGGAUAUCUAGAGCCUCGGCUCUAGAGAAGGCACAUGAGGAUCACCCAUGUCUCAAUUAAUU [BmEx4/2-E2] (Eterna round: R97, puzzle: Brourd's mod of Exclusion 4) | 33.9 nM |  | 23.6 nM |  |  | 
GUGCUAUAGGAAGGAUAUACUUCAUUAGACUAACAUGAGGAUCACCCAUGUAACCUUAUGUAUGUGUAGAAGGUCCAUAGCUUA (Eterna round: R96, puzzle: Exclusion NG 2) | 15.5 nM | 13.3 nM | 20.1 nM |  |  | 
CCGGUAAAGGAGGAUAUAGGAGUCGAUAGACACCUAGAAGGCCUGACAUGAGGAUCACCCAUGUGUCCUACCGG [Fiskers Ex 6 - 93] (puzzle: Exclusion 6) |  |  |  | 23.7 nM | 14.1 nM | 13.5 nM
CCGGAAAGGAAGGAUAUGCUAGACGAUAGUCUAGCAGAAGGUCCUACAUGAGGAUCACCCAUGUGUCCUCCCGG [Mat - Exclusion 6 - Eli Mod - D43] (Eterna round: R97, puzzle: Exclusion 6) | 1260 nM |  | 182 nM |  |  | 
CGCAAGUUAGGAUAUGACGCGAAUUUCCGGCUUUGGCCGGAUCAGAAGGAACUUGAGGAUCACCCAAGUGGCCG [Adia] (Eterna round: R97, puzzle: Exclusion 4) | 20.1 nM |  | 15.9 nM |  |  | 
AAAUAGCUUGAGGAUAUUGGACUGGAUUCAGUGCGAGAAGGCAAGACAUGAGGAUCACCCAUGUUGUGUUGGGA [EX6 #10] (Eterna round: R97, puzzle: Exclusion 6) | 180 nM |  | 91.6 nM |  |  | 
AAUUAGCAAGCAAGAUCCCACAUGAGGAUCACCCAUGUGCUCGUCUUAUAAGGUACUGUGACGAUAGUCACGGUACC [Mat - Sensor, turn-off var - Eli Mod - D49] (Eterna round: R97, puzzle: Sensor, turn-off variant 1) | 42.9 nM |  | 49.4 nM |  |  | 
UUUAACAAGCCAGAUCCUCACAUGAGGAUCACCCAUGUGCUCGUCUGAUUUUGUACUAUCAUGUGAGUGAUAGUGUU [Level Boss var2-06] (puzzle: Sensor v3, turn-off variant 1) |  |  |  | 67.3 nM | 24.7 nM | 115 nM
UUUCGGCGGACCGUGGCUUUUUGCUCGUCUUAUGCUACGACAUGAGGAUCACCCAUGUGGUGGUGGUCCGUUGUUGU [Grok-var2-11 mod JAL] (puzzle: Sensor v3, turn-off variant 2) |  |  |  | 59.7 nM | 10.4 nM | 39.7 nM
UUUUUAGUGCUUUUUAAGUACAUGAGGAUCACCCAUGUACUUGUCUGGUGGUCCGGACAAGCUUUUUGCUCGUCUUG [Trying Again] (puzzle: Sensor v3, turn-off variant 1) |  |  |  | 41.4 nM | 35.9 nM | 48.2 nM
AAUAAUAAAGUGAGGAUAUCUAGAGCCUCGGCUCUAGAGAAGGCACAUGAGGAUCACCCAUGUCUCAAUAAUAA [BmEx4/1-C5] (Eterna round: R97, puzzle: Brourd's mod of Exclusion 4) | 60.5 nM |  | 21.3 nM |  |  | 
GCUGGUCGAGGAUAUACAUGAGGAUCACCCAUGUGAUUAGCAGUCCUCGGACUGCAAUGUAGAAGGCGACCAGC [E3/2-A1] (Eterna round: R97, puzzle: Exclusion 3) | 620 nM |  | 439 nM |  |  | 
UUUUUCGAACAAGCUUCGUACAUGAGGAUCACCCAUGUUUUUAGUUUUGUGUUGGUCAGUAUGGAAGUUCGUCUUAU [JR_SV3TOV1_Sub088] (puzzle: Sensor v3, turn-off variant 1) |  |  |  | 239 nM | 356 nM | 288 nM
GAUUAUGCGAGCUUUAGGGACAUGAGGAUCACCCAUGUUCGUCUUAUUGAUCUGGGUACGCUAACAUACCUAAAUCU [JMF 42] (puzzle: Sensor v3, turn-off variant 1) |  |  |  | 82.2 nM | 89.2 nM | 96.7 nM
